2 molecules from article PMC5709467, “Solution structure and interaction with copper in vitro and in living cells of the first BIR domain of XIAP” (Scientific Reports, 2017) can be followed below.

Data set [1] has as its target D71N/R72E mutant of BIR1 (1-105) of XIAP (human) (UniProt P98170). The data set is described as follows: MALDI-TOF mass spectrometry; oxidised D71N/R72E BIR1; covalent (disulfide-linked) dimer; compared with a sample treated with DTT.
Data set [2] shares this target. The data set is described as follows: SEC; oxidised protein (C12 disulfide), analytical gel filtration on Superdex 75 10/200 GL, 20 mM Bis-Tris pH 6.5. On the technique in general: SEC sorts molecules by how far they enter the pores of the column.
Data set [3] deals with the molecule itself. The data set is described as follows: NMR 15N relaxation (R2/R1, rotational correlation time); reduced protein, about 0.3 mM, 20 mM Bis-Tris pH 6.5, 298 K.

Broadly, the stoichiometry N is a count of units in the complex or per binding partner. As for “D71N/R72E mutant of BIR1 (1-105) of XIAP (from UniProt P98170 1-105) (domain or fragment)”, the stoichiometry N in data set [1] and in data set [2] was 2 in each case.

B1: Wild-type BIR1 (1-105 aa), first BIR domain of XIAP (domain or fragment, human, UniProt P98170 1-105, looked up)
chain: MTFNSFEGSKTCVPADINKEEEFVEEFNRLKTFANFPSGSPVSASTLARAGFLYTGEGDTVRCFSCHAAVDRWQYGDSAVGRHRKVSPNCRFINGFYLENSATQS
notes: 15N- or 15N,13C-labelled for NMR; cloned into pET-3a; In the oxidised state C12 of the two subunits form a disulfide bond; also called WT BIR1
Turning to B1, in data set [3], the “stoichiometry N” value amounted to 2.
